{"source": "paper PMC7596504", "about": "“Molecular mechanism of the MORC4 ATPase activation” (Nature Communications, 2020)", "key": {"[1]": {"tested_on": "NCP207", "assay": "Fluorescence polarization binding to NCP207", "procedure": "Fluorescence polarization measurements were acquired with a Tecan infinite M1000Pro plate reader by exciting at 470 nm and measuring polarized emission at 519 nm with 5 nm excitation and emission bandwidths. The fluorescence polarization was calculated from the emission polarized parallel and perpendicular to the polarized excitation light. Fluorescence polarization measurements were carried out using increasing concentrations of MORC4 ATPaseCW, ATPase alone, or CW alone with 5 nM 207 bp Fluorescein-labeled NCPs in 15 mM Tris pH 7.5, 75 mM NaCl, 0.00625% Tween 20, and 5 mM dithiothreitol buffer in 30 µL reaction volumes. The samples were loaded into a Corning round bottom black polystyrene plate and incubated at room temperature for 10 min before fluorescence polarization measurements of the samples were taken. The data were then fit to a non-cooperative binding isotherm to determine S1/2 values. Errors represent a S.D. between the S1/2 values based on three runs.\nHistone octamers unlabeled or labeled with Cy5 at H2AK119 were prepared as previously described. NCPs were reconstituted by combining octamer with 1.25× excess DNA and performing slow salt dialysis. Free DNA was then separated from fully reconstituted NCPs by sucrose gradient purification. NCPs for fluorescence polarization assays were reconstituted from unlabeled octamer and 207 bp DNA containing the 601 Widom sequence flanked with a 30 bp linker on either side and internally labeled with Fluorescein 27 bp in from the 5′ end. Cy3-Cy5 labeled NCPs for FRET assays were reconstituted with Cy5 labeled octamer plus either 147 bp 601 Widom DNA containing a LexA transcription factor binding site at bases 8–27[34], or 252 bp DNA containing the 601 Widom sequence with a 75 bp linker at the 3′ end, a 30 bp linker at the 5’ end, and a Gal4 transcription factor binding site at bases 8–26 in the 601 Widom sequence. The 147 bp LexA-binding DNA was labeled with Cy3 on the 5′ end, and the 252 bp Gal4-binding DNA was internally labeled with Cy3 34 bp in from the 5′ end."}, "[2]": {"molecular_target": "T1, MORC4 CW domain (Homo sapiens, UniProt Q8TE76)", "T1 construct": "The CW domain (aa 417–475) of MORC4 was cloned into a pGEX 6p-1 vector; GST (N, cleaved yes); made in house; host or cells: E. coli Rosetta2 (DE3) pLysS or BL21 (DE3) RIL", "T1 sequence (Q8TE76 417-475)": "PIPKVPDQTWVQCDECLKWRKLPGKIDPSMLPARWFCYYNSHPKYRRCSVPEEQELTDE", "assay": "1H,15N HSQC NMR titration of MORC4 CW", "format": "binding", "procedure": "NMR experiments were carried out at 298 K on a Varian INOVA 600 and 900 MHz spectrometers. His-tagged MORC4 ATPase (1–411) was expressed and purified as described above and used without cleavage of the tag. NMR samples contained 0.1 mM uniformly ^15N-labeled WT or mutated CW in 20 mM Tris-HCl (pH 7) buffer supplemented with 100 mM NaCl, 5 mM DTT, and 10% D2O. Binding was characterized by monitoring CSPs in the proteins induced by H3 peptides or the ATPase domain. For the CWKRR mutant, NMR experiments were performed in 20 mM Tris-HCl (pH 6.8) buffer supplemented with 150 mM NaCl, 2 mM DTT, and 10% D2O."}, "[3]": {"tested_on": "NCP147", "assay": "Fluorescence polarization binding to NCP147"}, "[4]": {"tested_on": "MORC4", "assay": "ATPase activity assay (EnzChek Phosphate Assay Kit)", "format": "biochemical, human", "parameters": "Rate of ATP hydrolysis: unit not given here", "details": "for Rate of ATP hydrolysis: no DNA, no peptide", "procedure": "To determine whether MORC4 is catalytically active, we produced the ATPase domain of human MORC4 and examined its ability to hydrolyze ATP in enzymatic assays (Fig. 1a–c). Following incubation of the ATPase domain with ATP, 2-amino-6-mercapto-7-methylpurine ribonucleoside and nucleoside phosphorylase, the release of inorganic phosphate generated by the hydrolysis of ATP to ADP was monitored by measuring an increase in absorbance at 360 nm.\nThe ATPase assays were performed using the EnzChek Phosphate Assay Kit (Invitrogen, item # E6646). The reactions were carried out on 1.0 µM of MORC4 His-ATPase or ATPaseCW (WT and mutants), in the presence and absence of 1 µM 601 DNA or 50 µM of unmodified H3 or H3K4me3 peptide (aa 1–12 of H3) in a buffer containing 50 mM Tris-HCl (pH 7.5), 150 mM NaCl, 1 mM MgCl2, 0.1 mM sodium azide, 200 µM MESG, and 1 U of PNP. In assay with the nucleosome, 0.5 µM of MORC4 ATPaseCW and 0.5 µM NCP167 (Activemotif) were used. The reaction was started by adding 2 mM ATP to the mixture at room temperature, and the release of inorganic phosphate was monitored by measuring the absorbance at 360 nm on a Nanodrop 2000c spectrophotometer (Thermo Scientific). In the presence of inorganic phosphate, produced by the hydrolysis of ATP to ADP, MESG is enzymatically converted to ribose 1-phosphate and […] by PNP, resulting in a shift in the wavelength absorbance from 330 nm for MESG to 360 nm for the product. The rate of ATP self-hydrolysis was measured in parallel. Error was calculated as the S.D. of at least three separate experiments (two in Fig. 4j)."}, "[5]": {"tested_on": "NCP147", "assay": "EMSA with NCP147", "format": "binding", "details": "5 nM 147 bp fluorescein-labeled NCP, pH 7.5, 4 °C", "procedure": "EMSAs were performed by mixing increasing amounts of MORC4 ATPase with 5 nM 147 bp fluorescein-labeled NCP in 25 mM Tris-HCl pH 7.5, 75 mM NaCl, 25 mM Tris-HCl pH 7.5, 0.005% Tween 20, and 10% glycerol buffer in a 12 μL reaction volume. Each sample was incubated at 4 °C for 5 min and then loaded onto a 5% native polyacrylamide gel. Electrophoresis was performed in 0.3× Tris-borate-EDTA (TBE) at 300 V for 90 min. Fluorescein fluorescence images were acquired with a Typhoon Phosphor Imager."}}}
{"molecule": "ATPase: ATPase domain (aa 29–411) of human MORC4 (Q8TE76) (protein, UniProt Q8TE76 29-411, looked up, fragment) GIRLSTMSPRYLQSNSSSHTRPFSAIAELLDNAVDPDVSARTVFIDVEEVKNKSCLTFTDDGCGMTPHKLHRMLSFGFTDKVIKKSQCPIGVFGNGFKSGSMRLGKDALVFTKNGGTLTVGLLSQTYLECVQAQAVIVPIVPFNQQNKKMIITEDSLPSLEAILNYSIFNRENDLLAQFDAIPGKKGTRVLIWNIRRNKNGKSELDFDTDQYDILVSDFDTEEKMTGGVTSELPETEYSLRAFCGILYMKPRMKIFLRQKKVTTQMIAKSLANVEYDTYKPTFTNKQVRITFGFSCKNSNQFGIMMYHNNRLIKSFEKVGCQVKPTRGEGVGVIGVIECNFLKPAYNKQDFEYTKEYRLTINALAQKLNAYWKEKTSQDNFET", "values": [{"measurement": "increase in interaction with NCP207 relative to NCP147", "setting": "[1]; NCP207 vs NCP147", "value": "~ 5 fold"}, {"measurement": "S1/2", "setting": "[1]; fluorescence polarization, 5 nM NCP207, pH 7.5, 75 mM NaCl, room temperature, 10 min, mean ± S.D. of n = 3", "value": "0.50 ± 0.08", "unit": "µM"}, {"measurement": "interaction with CW by chemical shift perturbations", "setting": "[2]; 15N-labeled WT CW 0.1 mM, pH 7, 100 mM NaCl, 298 K", "value": "formation of the large ATPase:CW complex"}, {"measurement": "competition with H3 peptide for CW", "setting": "[2]; titration into the CW:H3 complex", "value": "disruption of the CW:H3 complex and formation of the complex between CW and the ATPase domain"}, {"measurement": "decrease in binding to NCP147 compared to NCP207", "setting": "[3]; NCP147 vs NCP207 (peer review file)", "value": 5, "unit": "fold"}, {"measurement": "S1/2", "setting": "[3]; fluorescence polarization, pH 7.5, 75 mM NaCl, room temperature, 10 min, mean of n = 3", "value": 2.3, "unit": "µM"}, {"measurement": "catalytic (ATPase) activity of the protein", "setting": "[4]", "value": "possesses little ATP hydrolyzing activity"}, {"measurement": "Rate of ATP hydrolysis", "setting": "[4]; 1.0 µM protein, 2 mM ATP, pH 7.5, room temperature, absorbance 360 nm, Fig. 1b,c, mean", "value": 0.08049}, {"measurement": "Rate of ATP hydrolysis", "setting": "[4]; Fig. 1b, replicate 4", "value": 0.02158}, {"measurement": "Rate of ATP hydrolysis", "setting": "[4]; Fig. 1b, replicate 5", "value": 0.01439}, {"measurement": "binding to NCP147 in EMSA", "setting": "[5]", "value": "bound to NCP147"}]}
